Measurements reported in US20150105316A1 (TREVENA, published 2015).
Where no end group is shown, it is not given here. [ ]: non-standard residue; d: D form. Tle = CC(C)(C)[C@H](N)C(=O)O; Ac6c = NC1(C(=O)O)CCCCC1; cyHex = not defined here; cyPen = not defined here; Ac5c = NC1(C(=O)O)CCCC1; Sar = CNCC(=O)O

T1: human angiotensin 2 type 1 receptor (human, UniProt P30556 1-359)
T1 sequence (looked up): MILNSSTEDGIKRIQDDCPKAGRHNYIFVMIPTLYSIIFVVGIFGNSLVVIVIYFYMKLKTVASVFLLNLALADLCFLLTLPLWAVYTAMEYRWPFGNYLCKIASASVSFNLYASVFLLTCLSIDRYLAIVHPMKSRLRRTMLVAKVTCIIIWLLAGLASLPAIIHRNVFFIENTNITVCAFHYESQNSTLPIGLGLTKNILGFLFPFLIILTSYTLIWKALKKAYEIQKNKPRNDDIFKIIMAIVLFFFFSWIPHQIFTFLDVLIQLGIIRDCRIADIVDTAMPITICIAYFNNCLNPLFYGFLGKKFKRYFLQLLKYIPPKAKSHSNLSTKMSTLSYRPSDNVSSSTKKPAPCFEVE

T2: rat angiotensin 2 type 1 receptor (rat, UniProt P25095 1-359)
T2 sequence (looked up): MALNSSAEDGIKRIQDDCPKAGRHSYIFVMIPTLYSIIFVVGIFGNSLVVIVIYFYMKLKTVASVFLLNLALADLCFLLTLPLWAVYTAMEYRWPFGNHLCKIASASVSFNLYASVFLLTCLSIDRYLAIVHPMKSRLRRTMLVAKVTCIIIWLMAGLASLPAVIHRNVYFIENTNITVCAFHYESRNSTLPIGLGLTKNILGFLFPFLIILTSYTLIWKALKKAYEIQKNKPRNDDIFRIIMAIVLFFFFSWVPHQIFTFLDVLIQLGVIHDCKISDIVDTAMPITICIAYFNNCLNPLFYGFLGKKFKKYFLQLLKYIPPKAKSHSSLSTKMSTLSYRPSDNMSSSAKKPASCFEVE


Assays:
Assay in all cases: cell-based or functional assay
[1] = target: T1, human angiotensin 2 type 1 receptor
[2] = target: T2, rat angiotensin 2 type 1 receptor
[3] = target: T1, human angiotensin 2 type 1 receptor; remark: listed apart in the source
[4] = target: T2, rat angiotensin 2 type 1 receptor; remark: listed apart in the source

| IP1 G-protein assay EC50 [1] [nM] | IP1 G-protein assay Span [1] | IP1 G-protein assay pEC50 [1] | IP1 G-protein assay EC50 [2] [nM] | IP1 G-protein assay Span [2] | IP1 G-protein assay pEC50 [2] | beta-arrestin2 assay EC50 [3] [nM] | beta-arrestin2 assay Span [3] | beta-arrestin2 assay pEC50 [3] | beta-arrestin2 assay EC50 [4] [nM] | beta-arrestin2 assay Span [4] | beta-arrestin2 assay pEC50 [4] | Binder |
| --- | --- | --- | --- | --- | --- | --- | --- | --- | --- | --- | --- | --- |
| 63.1 | < 103 | < 9.2 | > 0.6 | < 104 | < 9.2 | > 3.2 | < 101 | < 8.5 | > 3.2 | < 105 | < 8.5 | [Sar]RVYPHPV [SEQ ID NO: 6 (Sar-Arg-Val-Tyr-Pro-His-Pro-Val)] |
| > 1.3 | < 103 | < 9.2 | > 0.6 | < 104 | < 9.2 | > 3.2 | < 101 | < 8.5 | > 3.2 | < 105 | < 8.5 | [Sar]RVY[Ac6c]HPY [SEQ ID NO: 55 (Sar-Arg-Val-Tyr-cyHex-His-Pro-Tyr)] |
| > 1.3 | < 103 | < 9.2 | > 0.6 | < 104 | < 9.2 | > 3.2 | < 101 | < 8.5 | > 3.2 | < 105 | < 8.5 | [Sar]RVY[Ac6c]HP[Tle] [SEQ ID NO: 56 (Sar-Arg-Val-Tyr-cyHex-His-Pro-AA02)] |
| > 1.3 | < 103 | < 9.2 | > 0.6 | < 104 | < 9.2 | > 3.2 | < 101 | < 8.5 | > 3.2 | < 105 | < 8.5 | [Sar]RVY[Ac5c]HPM [SEQ ID NO: 23 (Sar-Arg-Val-Tyr-cyPen-His-Pro-Met)] |
| > 1.3 | – | > 9.2 | > 0.6 | < 104 | < 9.2 | > 3.2 | < 101 | < 8.5 | > 3.2 | < 105 | < 8.5 | [Sar]RVY[Ac5c]HPS [SEQ ID NO: 22 (Sar-Arg-Val-Tyr-cyPen-His-Pro-Ser)] |
| > 1.3 | – | > 9.2 | > 0.6 | < 104 | < 9.2 | > 3.2 | < 101 | < 8.5 | > 3.2 | < 105 | < 8.5 | [Sar]RVY[Ac5c]HPT [SEQ ID NO: 21 (Sar-Arg-Val-Tyr-cyPen-His-Pro-Thr)] |
| > 1.3 | < 103 | < 9.2 | > 0.6 | < 104 | < 9.2 | > 3.2 | < 101 | < 8.5 | > 3.2 | < 105 | < 8.5 | [Sar]RVY[Ac6c]HPP [SEQ ID NO: 39 (Sar-Arg-Val-Tyr-cyHex-His-Pro-Pro)] |

Continued, binder first:

| Binder | IP1 G-protein assay EC50 [1] [nM] | IP1 G-protein assay Span [1] | IP1 G-protein assay pEC50 [1] | IP1 G-protein assay EC50 [2] [nM] | IP1 G-protein assay Span [2] | IP1 G-protein assay pEC50 [2] | beta-arrestin2 assay EC50 [3] [nM] | beta-arrestin2 assay Span [3] | beta-arrestin2 assay pEC50 [3] | beta-arrestin2 assay EC50 [4] [nM] | beta-arrestin2 assay Span [4] | beta-arrestin2 assay pEC50 [4] |
| --- | --- | --- | --- | --- | --- | --- | --- | --- | --- | --- | --- | --- |
| [Sar]RVY[Ac6c]HPQ [SEQ ID NO: 38 (Sar-Arg-Val-Tyr-cyHex-His-Pro-Gln)] | > 1.3 | < 103 | < 9.2 | > 0.6 | < 104 | < 9.2 | > 3.2 | < 101 | < 8.5 | > 3.2 | < 105 | < 8.5 |
| [Sar]RVY[cyHex]HPA (reading uncertain; also: printed as Sar-Arg-Val-Tyr-cyHex-His-Pro-Ala) [SEQ ID NO: 2 (Sar-Arg-Val-Tyr-cyHex-His-Pro-Ala)] | – | < 103 | < 9.2 | > 0.6 | – | > 9.2 | – | < 101 | – | – | < 105 | – |
| [Sar]RVYPHPL [SEQ ID NO: 5 (Sar-Arg-Val-Tyr-Pro-His-Pro-Leu)] | 3.2 | < 103 | < 9.2 | > 0.6 | < 104 | < 9.2 | > 3.2 | < 101 | < 8.5 | > 3.2 | < 105 | < 8.5 |
| [Sar]RVY[Ac5c]HPL [SEQ ID NO: 19 (Sar-Arg-Val-Tyr-cyPen-His-Pro-Leu)] | > 1.3 | < 103 | < 9.2 | > 0.6 | – | > 9.2 | > 3.2 | < 101 | < 8.5 | > 3.2 | < 105 | < 8.5 |
| [Sar]RVY[Ac6c]HPW [SEQ ID NO: 54 (Sar-Arg-Val-Tyr-cyHex-His-Pro-Trp)] | > 1.3 | < 103 | < 9.2 | > 0.6 | < 104 | < 9.2 | > 3.2 | < 101 | < 8.5 | > 3.2 | < 105 | < 8.5 |
| [Sar]RVYPHP[dA] [SEQ ID NO: 60 (Sar-Arg-Val-Tyr-Pro-His-Pro-D-Ala)] | > 1.3 | < 103 | < 9.2 | > 0.6 | < 104 | < 9.2 | > 3.2 | < 101 | < 8.5 | > 3.2 | < 105 | < 8.5 |
| [Sar]RVYPHPI [SEQ ID NO: 4 (Sar-Arg-Val-Tyr-Pro-His-Pro-Ile)] | 2.5 | < 103 | < 9.2 | > 0.6 | – | > 9.2 | > 3.2 | < 101 | < 8.5 | > 3.2 | < 105 | < 8.5 |
| [Sar]RVY[Ac5c]HPI [SEQ ID NO: 18 (Sar-Arg-Val-Tyr-cyPen-His-Pro-Ile)] | > 1.3 | < 103 | < 9.2 | > 0.6 | < 104 | < 9.2 | > 3.2 | < 101 | < 8.5 | > 3.2 | < 105 | < 8.5 |
| [Sar]RVY[cyPen]HPA (reading uncertain; also: printed as Sar-Arg-Val-Tyr-cyPen-His-Pro-Ala) [SEQ ID NO: 3 (Sar-Arg-Val-Tyr-cyPen-His-Pro-Ala)] | > 10000 | – | > 9.2 | > 0.6 | – | > 9.2 | – | < 101 | – | – | < 105 | – |
| [Sar]RVY[Ac5c]HPF [SEQ ID NO: 24 (Sar-Arg-Val-Tyr-cyPen-His-Pro-Phe)] | < 1.3 | > 103 | < 9.2 | > 0.6 | < 104 | < 9.2 | > 3.2 | > 101 | < 8.5 | > 3.2 | < 105 | < 8.5 |
| [Sar]RVY[Ac5c]HPV [SEQ ID NO: 20 (Sar-Arg-Val-Tyr-cyPen-His-Pro-Val)] | > 1.3 | < 103 | < 9.2 | > 0.6 | < 104 | < 9.2 | > 3.2 | < 101 | < 8.5 | > 3.2 | < 105 | < 8.5 |
